The values below come from paper PMC3985291 (Cell reports, 2014).

A word on the Kd: it is the constant that tells how readily two partners part at equilibrium.

In this assay the target is Keap1 Kelch domain (recombinant) (human, UniProt Q14145 321-609). Nature of the assay: ITC. Background: Isothermal titration calorimetry measures the heat released or taken up as one component is titrated into another.
Sequence of Keap1 Kelch domain (recombinant) (Q14145 321-609): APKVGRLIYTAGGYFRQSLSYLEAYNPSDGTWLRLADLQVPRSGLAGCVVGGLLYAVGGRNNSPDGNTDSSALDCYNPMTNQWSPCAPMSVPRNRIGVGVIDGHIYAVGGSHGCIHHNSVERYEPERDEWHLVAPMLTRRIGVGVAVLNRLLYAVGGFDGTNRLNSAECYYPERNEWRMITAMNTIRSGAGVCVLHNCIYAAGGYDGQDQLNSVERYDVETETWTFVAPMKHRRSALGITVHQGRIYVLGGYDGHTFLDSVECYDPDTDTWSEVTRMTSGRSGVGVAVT

B1: Marburg virus VP24 (recombinant, used for ITC) (natural protein)
chain: MAELSTRYNLPANVTENSINLDLNSTARWIKEPSVGGWTVKWGNFVFHIPNTGMTLLHHLKSNFVVPEWQQTRNLFSHLFKNPKSTIIEPFLALRILLGVALKDQELQQSLIPGFRSIVHMLSEWLLLEVTSAIHISPNLLGIYLTSDMFKILMAGVKNFFNKMFTLHVVNDHGKPSSIEIKLTGQQIIITRVNMGFLVEVRRIDIEPCCGETVLSESVVFGLVAEAVLREHSQMEKGQPLNLTQYMNSKIAI
On to B1, for which the Kd was determined as 158 ± 20 nM.
